Biological target: rspo1_human RSPO1 (UniProt Q2MKA7)
Sequence (Q2MKA7 whole entry): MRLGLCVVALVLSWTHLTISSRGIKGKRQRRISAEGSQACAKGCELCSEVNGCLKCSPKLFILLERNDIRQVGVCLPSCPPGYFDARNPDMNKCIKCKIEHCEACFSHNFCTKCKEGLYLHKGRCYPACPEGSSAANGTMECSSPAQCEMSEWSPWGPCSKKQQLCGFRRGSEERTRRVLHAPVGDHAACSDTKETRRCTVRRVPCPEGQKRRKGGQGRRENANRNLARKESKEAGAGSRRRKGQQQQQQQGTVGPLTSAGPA

effect of a mutation on the interaction: disrupting interaction strength
Substance: E3 ubiquitin-protein ligase ZNRF3 (Homo sapiens), Q9ULT6 P103A
